# From patent US20250339531A1, “DUX4 POLYPEPTIDES AND NUCLEIC ACIDS FOR TREATING INFLAMMATORY AND AUTOIMMUNE CONDITIONS” (Fred Hutchinson Cancer Center, priority 2021, published 2025)
# B1: Q9NQC3 (protein, UniProt Q9NQC3 1-1192, looked up)
# chain: MEDLDQSPLVSSSDSPPRPQPAFKYQFVREPEDEEEEEEEEEEDEDEDLEELEVLERKPAAGLSAAPVPTAPAAGAPLMDFGNDFVPPAPRGPLPAAPPVAPERQPSWDPSPVSSTVPAPSPLSAAAVSPSKLPEDDEPPARPPPPPPASVSPQAEPVWTPPAPAPAAPPSTPAAPKRRGSSGSVDETLFALPAASEPVIRSSAENMDLKEQPGNTISAGQEDFPSVLLETAASLPSLSPLSAASFKEHEYLGNLSTVLPTEGTLQENVSEASKEVSEKAKTLLIDRDLTEFSELEYSEMGSSFSVSPKAESAVIVANPREEIIVKNKDEEEKLVSNNILHNQQELPTALTKLVKEDEVVSSEKAKDSFNEKRVAVEAPMREEYADFKPFERVWEVKDSKEDSDMLAAGGKIESNLESKVDKKCFADSLEQTNHEKDSESSNDDTSFPSTPEGIKDRSGAYITCAPFNPAATESIATNIFPLLGDPTSENKTDEKKIEEKKAQIVTEKNTSTKTSNPFLVAAQDSETDYVTTDNLTKVTEEVVANMPEGLTPDLVQEACESELNEVTGTKIAYETKMDLVQTSEVMQESLYPAAQLCPSFEESEATPSPVLPDIVMEAPLNSAVPSAGASVIQPSSSPLEASSVNYESIKHEPENPPPYEEAMSVSLKKVSGIKEEIKEPENINAALQETEAPYISIACDLIKETKLSAEPAPDFSDYSEMAKVEQPVPDHSELVEDSSPDSEPVDLFSDDSIPDVPQKQDETVMLVKESLTETSFESMIEYENKEKLSALPPEGGKPYLESFKLSLDNTKDTLLPDEVSTLSKKEKIPLQMEELSTAVYSNDDLFISKEAQIRETETFSDSSPIEIIDEFPTLISSKTDSFSKLAREYTDLEVSHKSEIANAPDGAGSLPCTELPHDLSLKNIQPKVEEKISFSDDFSKNGSATSKVLLLPPDVSALATQAEIESIVKPKVLVKEAEKKLPSDTEKEDRSPSAIFSAELSKTSVVDLLYWRDIKKTGVVFGASLFLLLSLTVFSIVSVTAYIALALLSVTISFRIYKGVIQAIQKSDEGHPFRAYLESEVAISEELVQKYSNSALGHVNCTIKELRRLFLVDDLVDSLKFAVLMWVFTYVGALFNGLTLLILALISLFSVPVIYERHQAQIDHYLGLANKNVKDAMAKIQAKIPGLKRKAE
# modifications: full-length
# B2: P31947 (protein, UniProt P31947 1-248, looked up)
# chain: MERASLIQKAKLAEQAERYEDMAAFMKGAVEKGEELSCEERNLLSVAYKNVVGGQRAAWRVLSSIEQKSNEEGSEEKGPEVREYREKVETELQGVCDTVLGLLDSHLIKEAGDAESRVFYLKMKGDYYRYLAEVATGDDKKRIIDSARSAYQEAMDISKKEMPPTNPIRLGLALNFSVFHYEIANSPEEAISLAKTTFDEAMADLHTLSEDSYKDSTLIMQLLRDNLTLWTADNAGEEGGEAPQEPQS
# modifications: full-length
# B3: P42224 (protein, UniProt P42224 1-750, looked up)
# chain: MSQWYELQQLDSKFLEQVHQLYDDSFPMEIRQYLAQWLEKQDWEHAANDVSFATIRFHDLLSQLDDQYSRFSLENNFLLQHNIRKSKRNLQDNFQEDPIQMSMIIYSCLKEERKILENAQRFNQAQSGNIQSTVMLDKQKELDSKVRNVKDKVMCIEHEIKSLEDLQDEYDFKCKTLQNREHETNGVAKSDQKQEQLLLKKMYLMLDNKRKEVVHKIIELLNVTELTQNALINDELVEWKRRQQSACIGGPPNACLDQLQNWFTIVAESLQQVRQQLKKLEELEQKYTYEHDPITKNKQVLWDRTFSLFQQLIQSSFVVERQPCMPTHPQRPLVLKTGVQFTVKLRLLVKLQELNYNLKVKVLFDKDVNERNTVKGFRKFNILGTHTKVMNMEESTNGSLAAEFRHLQLKEQKNAGTRTNEGPLIVTEELHSLSFETQLCQPGLVIDLETTSLPVVVISNVSQLPSGWASILWYNMLVAEPRNLSFFLTPPCARWAQLSEVLSWQFSSVTKRGLNVDQLNMLGEKLLGPNASPDGLIPWTRFCKENINDKNFPFWLWIESILELIKKHLLPLWNDGCIMGFISKERERALLKDQQPGTFLLRFSESSREGAITFTWVERSQNGGEPDFHAVEPYTKKELSAVTFPDIIRNYKVMAAENIPENPLKYLYPNIDKDHAFGKYYSRPKEAPEPMELDGPKGTGYIKTELISVSEVHPSRLQTTDNLLPMSPEEFDEVSRIVGSVEFDSMMNTV
# modifications: full-length
# B4: Q92973 (protein, UniProt Q92973 1-898, looked up)
# chain: MVWDRQTKMEYEWKPDEQGLQQILQLLKESQSPDTTIQRTVQQKLEQLNQYPDFNNYLIFVLTKLKSEDEPTRSLSGLILKNNVKAHFQNFPNGVTDFIKSECLNNIGDSSPLIRATVGILITTIASKGELQNWPDLLPKLCSLLDSEDYNTCEGAFGALQKICEDSAEILDSDVLDRPLNIMIPKFLQFFKHSSPKIRSHAVACVNQFIISRTQALMLHIDSFIENLFALAGDEEPEVRKNVCRALVMLLEVRMDRLLPHMHNIVEYMLQRTQDQDENVALEACEFWLTLAEQPICKDVLVRHLPKLIPVLVNGMKYSDIDIILLKGDVEEDETIPDSEQDIRPRFHRSRTVAQQHDEDGIEEEDDDDDEIDDDDTISDWNLRKCSAAALDVLANVYRDELLPHILPLLKELLFHHEWVVKESGILVLGAIAEGCMQGMIPYLPELIPHLIQCLSDKKALVRSITCWTLSRYAHWVVSQPPDTYLKPLMTELLKRILDSNKRVQEAACSAFATLEEEACTELVPYLAYILDTLVFAFSKYQHKNLLILYDAIGTLADSVGHHLNKPEYIQMLMPPLIQKWNMLKDEDKDLFPLLECLSSVATALQSGFLPYCEPVYQRCVNLVQKTLAQAMLNNAQPDQYEAPDKDFMIVALDLLSGLAEGLGGNIEQLVARSNILTLMYQCMQDKMPEVRQSSFALLGDLTKACFQHVKPCIADFMPILGTNLNPEFISVCNNATWAIGEISIQMGIEMQPYIPMVLHQLVEIINRPNTPKTLLENTAITIGRLGYVCPQEVAPMLQQFIRPWCTSLRNIRDNEEKDSAFRGICTMISVNPSGVIQDFIFFCDAVASWINPKDDLRDMFCKILHGFKNQVGDENWRRFSDQFPLPLKERLAAFYGV
# modifications: full-length
# B5: O95373 (protein, UniProt O95373 1-1038, looked up)
# chain: MDPNTIIEALRGTMDPALREAAERQLNEAHKSLNFVSTLLQITMSEQLDLPVRQAGVIYLKNMITQYWPDRETAPGDISPYTIPEEDRHCIRENIVEAIIHSPELIRVQLTTCIHHIIKHDYPSRWTAIVDKIGFYLQSDNSACWLGILLCLYQLVKNYEYKKPEERSPLVAAMQHFLPVLKDRFIQLLSDQSDQSVLIQKQIFKIFYALVQYTLPLELINQQNLTEWIEILKTVVNRDVPNETLQVEEDDRPELPWWKCKKWALHILARLFERYGSPGNVSKEYNEFAEVFLKAFAVGVQQVLLKVLYQYKEKQYMAPRVLQQTLNYINQGVSHALTWKNLKPHIQGIIQDVIFPLMCYTDADEELWQEDPYEYIRMKFDVFEDFISPTTAAQTLLFTACSKRKEVLQKTMGFCYQILTEPNADPRKKDGALHMIGSLAEILLKKKIYKDQMEYMLQNHVFPLFSSELGYMRARACWVLHYFCEVKFKSDQNLQTALELTRRCLIDDREMPVKVEAAIALQVLISNQEKAKEYITPFIRPVMQALLHIIRETENDDLTNVIQKMICEYSEEVTPIAVEMTQHLAMTFNQVIQTGPDEEGSDDKAVTAMGILNTIDTLLSVVEDHKEITQQLEGICLQVIGTVLQQHVLEFYEEIFSLAHSLTCQQVSPQMWQLLPLVFEVFQQDGFDYFTDMMPLLHNYVTVDTDTLLSDTKYLEMIYSMCKKVLTGVAGEDAECHAAKLLEVIILQCKGRGIDQCIPLFVEAALERLTREVKTSELRTMCLQVAIAALYYNPHLLLNTLENLRFPNNVEPVTNHFITQWLNDVDCFLGLHDRKMCVLGLCALIDMEQIPQVLNQVSGQILPAFILLFNGLKRAYACHAEHENDSDDDDEAEDDDETEELGSDEDDIDEDGQEYLEILAKQAGEDGDDEDWEEDDAEETALEGYSTIIDDEDNPVDEYQIFKAIFQTIQNRNPVWYQALTHGLNEEQRKQLQDIATLADQRRAAHESKMIEKHGGYKFSAPVVPSSFNFGGPAPGMN
# modifications: full-length
# B6: Q16576 (protein, UniProt Q16576 1-425, looked up)
# chain: MASKEMFEDTVEERVINEEYKIWKKNTPFLYDLVMTHALQWPSLTVQWLPEVTKPEGKDYALHWLVLGTHTSDEQNHLVVARVHIPNDDAQFDASHCDSDKGEFGGFGSVTGKIECEIKINHEGEVNRARYMPQNPHIIATKTPSSDVLVFDYTKHPAKPDPSGECNPDLRLRGHQKEGYGLSWNSNLSGHLLSASDDHTVCLWDINAGPKEGKIVDAKAIFTGHSAVVEDVAWHLLHESLFGSVADDQKLMIWDTRSNTTSKPSHLVDAHTAEVNCLSFNPYSEFILATGSADKTVALWDLRNLKLKLHTFESHKDEIFQVHWSPHNETILASSGTDRRLNVWDLSKIGEEQSAEDAEDGPPELLFIHGGHTAKISDFSWNPNEPWVICSVSEDNIMQIWQMAENIYNDEESDVTTSELEGQGS
# modifications: full-length
# B7: HNRNPH1 (protein)
# chain: MMLGTEGGEGFVVKVRGLPWSCSADEVQRFFSDCKIQNGAQGIRFIYTREGRPSGEAFVELESEDEVKLALKKDRETMGHRYVEVFKSNNVEMDWVLKHTGPNSPDTANDGFVRLRGLPFGCSKEEIVQFFSGLEIVPNGITLPVDFQGRSTGEAFVQFASQEIAEKALKKHKERIGHRYIEIFKSSRAEVRTHYDPPRKLMAMQRPGPYDRPGAGRGYNSIGRGAGFERMRRGAYGGGYGGYDDYNGYNDGYGFGSDRFGRDLNYCFSGMSDHRYGDGGSTFQSTTGHCVHMRGLPYRATENDIYNFFSPLNPVRVHIEIGPDGRVTGEADVEFATHEDAVAAMSKDKANMQHRYVELFLNSTAGASGGAYEHRYVELFLNSTAGASGGAYGSQMMGGMGLSNQSSYGGPASQQLSGGYGGGYGGQSSMSGYGNQGAVNSSYYSSGSRASMGVNGMGGLSSMSSMSGGWGM
# Tested on: proteins that co-immunoprecipitated with DUX4-CTD constructs expressed in MB135 myoblasts
# Experiment: LC-MS of proteins co-immunoprecipitated with DUX4-CTD (Table 1) and western validation
# Format: binding, human
# Parameters: key to 4. mL1dL2 + Dox + IFNG / 4. + IFNG mix / 4. longCTD + Dox + IFNG / 3. + IFNg + Dox longCTD / 3. + Dox longCTD / 3. + IFNG longCTD: peptide-spectrum matches (PSMs) per protein
# Conditions: LC-MS counts of the listed protein co-immunoprecipitated with DUX4-CTD bait longCTD; experiment 4, Dox + IFNG
# Summary of the method: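 FLAG-tagged DUX4-CTD expressed in doxycycline-induced MB135 myoblasts, some also IFNG-treated; nuclear lysates in pH 7.4 NP-40 IP buffer were pre-cleared, then anti-FLAG immunoprecipitated 3 h at 4 °C. For LC-MS, FLAG-peptide elution, in-gel trypsin digest, Orbitrap analysis; proteins with ≥2 PSMs in both experiments categorised and ranked by total PSMs.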
row,Molecule,4. longCTD + Dox + IFNG
1,B1,6
2,B2,6
3,B3,19
4,B4,3
5,B5,1
6,B6,5

# Same assay, conditions: LC-MS counts of the listed protein co-immunoprecipitated with DUX4-CTD bait mL1dL2; experiment 4, Dox + IFNG
row,Molecule,4. mL1dL2 + Dox + IFNG
1,B4,6
2,B5,3

# Same assay, conditions: LC-MS counts of the listed protein in anti-FLAG co-IP; experiment 4, IFNG, no doxycycline, mix; MB135 myoblasts
row,Molecule,4. + IFNG mix
1,B2,1

# Same assay, conditions: LC-MS value per protein co-immunoprecipitated with DUX4-CTD construct mL1dL2 in MB135 myoblasts; + Dox + IFNG; kind of count not given
row,Molecule,4. mL1dL2 + Dox + IFNG
1,B7,7

# Same assay, conditions: bait longCTD; experiment 3, Dox only
row,Molecule,3. + Dox longCTD
1,B4,1
2,B5,4

# Same assay, conditions: bait longCTD; experiment 3, IFNg + Dox
row,Molecule,3. + IFNg + Dox longCTD
1,B1,7
2,B2,1
3,B3,3
4,B4,4
5,B5,8
6,B6,4

# Same assay, conditions: sum over all samples
row,Molecule,SUM of PSMS
1,B1,23
2,B2,8
3,B3,43
4,B4,14
5,B5,16
6,B6,25
